The record followed here is patent US20260250410A1, “ANTIBODY AND USE THEREOF” (SICHUAN HUIYU PHARMACEUTICAL CO., LTD., priority 2022, published 2026).

One experiment has as its system PC3 cells. The experiment is described as follows: Endocytosis capacity of murine monoclonal antibody (flow cytometry internalization). The note with it: antibody 1.5 μg/mL; for Internalization PC3 (%) 0.5 h: PC3, 0.5 h at 37° C.; for Internalization PC3 (%) 1 h: PC3, 1 h at 37° C.; for Internalization PC3 (%) 2 h: PC3, 2 h at 37° C. Type of experiment: cell-based, human. How it is done:
(§1) The endocytosis capacity of the antibody was detected for 0.5 to 2 hours. MDA-MB-231 and PC3 cells were subjected to digestion with 5 mM EDTA, and plated at 4×10^4 cells/well after cell counting. After adding an Fc blocker (Human TruStain FcX™, Biolegend, 422302) and blocking at room temperature for 10 mins, a test antibody (1.5 μg/mL) was added, and the mixture was incubated at 4° C. for 30 mins, centrifuged, and washed twice with PBS+2% FBS, then the cells were divided into four equal portions (labeled as 0 h, 0.5 h, 1 h, 2 h), cells labeled as 0.5 h, 1 h, 2 h time points were added to a cell culture medium at 200 µL/well, and cultured at 37° C. for 0.5 h, 1 h, 2 h, respectively. Cells at 0 h point were centrifuged to remove supernatant, a secondary antibody (PE anti-human IgG Fc Antibody, Biolegend, 410708) was added, and the mixture was incubated at 4° C. for 30 mins, centrifuged, and washed twice with PBS+2% FBS, and detection was performed using a flow cytometer. After incubation of cells labeled as 0.5 h, 1 h, and 2 h points at 37° C. was completed, a secondary antibody was added (in the same steps as those at 0 h point), Geo-MFI of the signal under the same voltage was collected as detection signal at 0 h, and antibody internalization rate was calculated according to the following equation: Internalization (%)=(Geo-MFI (0 h)-Geo-MFI (0.5, 1, 2 h))/Geo-MFI (0 h)×100%.
In general terms: Flow cytometry measures light scatter and fluorescence of single cells or particles in a stream.

The next experiment concerns MDA-MB-231 cells. Described as above. Type of experiment: cell-based, human. The note with it: antibody 1.5 μg/mL; for Internalization MDA-MB-231 (%) 0.5 h: MDA-MB-231, 0.5 h at 37° C.; for Internalization MDA-MB-231 (%) 1 h: MDA-MB-231, 1 h at 37° C.; for Internalization MDA-MB-231 (%) 2 h: MDA-MB-231, 2 h at 37° C. How it is done: as §1
The next experiment addresses T1, HuCDCP1-C (Homo sapiens, UniProt Q9H5V8).
T1 construct: made in house; host or cells: HEK-293T
T1 sequence (Q9H5V8 30-667): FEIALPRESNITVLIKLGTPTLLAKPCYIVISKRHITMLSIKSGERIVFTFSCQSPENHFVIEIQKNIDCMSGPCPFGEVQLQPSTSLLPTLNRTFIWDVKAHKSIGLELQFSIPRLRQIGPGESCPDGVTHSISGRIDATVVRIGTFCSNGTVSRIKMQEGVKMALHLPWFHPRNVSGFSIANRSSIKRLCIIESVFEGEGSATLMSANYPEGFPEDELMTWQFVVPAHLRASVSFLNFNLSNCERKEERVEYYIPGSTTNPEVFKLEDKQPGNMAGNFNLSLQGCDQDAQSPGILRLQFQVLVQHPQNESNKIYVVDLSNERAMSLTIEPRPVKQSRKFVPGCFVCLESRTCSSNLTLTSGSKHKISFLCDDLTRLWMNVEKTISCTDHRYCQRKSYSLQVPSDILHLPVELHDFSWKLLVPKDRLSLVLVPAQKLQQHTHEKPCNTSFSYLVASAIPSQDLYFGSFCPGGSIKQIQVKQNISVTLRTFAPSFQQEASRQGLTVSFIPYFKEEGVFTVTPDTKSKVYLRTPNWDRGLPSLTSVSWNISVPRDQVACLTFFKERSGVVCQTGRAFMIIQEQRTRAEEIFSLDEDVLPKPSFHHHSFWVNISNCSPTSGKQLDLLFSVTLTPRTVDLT
Kind of experiment: Caterra affinity of humanized anti-CDCP1 antibodies. Type of experiment: binding. The note with it: HuCDCP1-C 2 μg/ml immobilized. How it is done:
The humanized anti-CDCP1 antibodies obtained from Example 11 were subjected to gene cloning, constructed into pTT5 expression vector for a small amount of expression in CHO cells (Expi-CHOS: Gibco A29127), and purified with an Fc affinity column (AT Protein A Diamond Plus. No. AA402312). Antibody purity was analyzed by HPLC and determined by Nanodrop. High-throughput affinity assay was carried out for a small amount of antibodies by Caterra.

B1: 6G9: anti-CDCP1 murine monoclonal antibody (hybridoma); VH SEQ ID NO: 244, VL SEQ ID NO: 295 (antibody, V domains shown)
VH: EVQLKESGPGLVKPSQSLSLTCTVTGYSITSDYAWNWIRQFPGNKLEWMGYIIYSGRTSYNPSLKSRISITRDTSKNQFFLQLNSVTTEDTATYYCAREDYYGGSYGGLDYWGQGTTVTVSS
VL: DIVMTQSPLSLPVSLGDQASISCRSSQSIVHSNGNTYLEWYLQKPGQSPKLLIYKVSNRFSGVPDRFSGSGSGTDFTLKISRVEAEDLGVYYCFQGSHVPWTFGGGTKLEIK
modifications: 6G9 heavy chain variable region; 6G9 light chain variable region
For B1, in the experiment with PC3 cells, the “Internalization PC3 (%) 0.5 h” value came to 60.58%, the “Internalization PC3 (%) 1 h” value is 77.88% and the “Internalization PC3 (%) 2 h” value is on record as 87.67%. For the same molecule, in the experiment on MDA-MB-231 cells, the “Internalization MDA-MB-231 (%) 0.5 h” value came out at 75.76%, the “Internalization MDA-MB-231 (%) 1 h” value amounted to 86.81% and the “Internalization MDA-MB-231 (%) 2 h” value is 88.89%.

B2: 3F1A11: anti-CDCP1 murine monoclonal antibody (hybridoma); VH SEQ ID NO: 245, VL SEQ ID NO: 296 (antibody, V domains shown)
VH: EVKLVESGPGLVKPSQSLSLTCTVTGYSITSDYAWNWIRQFPGNKLEWMGYISYNTYTSYNPSLKSRISVTRDTSKNQFFLQLKSVTIEDTATYFCAGGDYYGTGAVDYWGQGTTVTVSS
VL: EIVLTQSPLSLPVSLGDQASISCRSRQTLVHTNGNTYLDWYLQKPGQSPKLLIYKVSIRFSGVPDRFSGSRSGTDFTLKISRVEAEDLGIYYCFQGSHVPWTFGGGTKLEIK
modifications: 3F1A11 heavy chain variable region; 3F1A11/3F1A11-H-12 light chain variable region
As for B2, in the experiment with PC3 cells, the “Internalization PC3 (%) 2 h” value is recorded as 51.76%. For the same molecule, in the experiment with MDA-MB-231 cells, the “Internalization MDA-MB-231 (%) 2 h” value is reported as 38.10%.

B3: 3F1A11-H-12: anti-CDCP1 murine monoclonal antibody (hybridoma); VH SEQ ID NO: 248, VL SEQ ID NO: 296 (antibody, V domains shown)
VH: EVKLVESGPGLVKPSQSLSLTCSVTGYSITSGYYWNWIRQFPGNKLDWMGYITYDDSHYYNPSLKDRLSITRDTSKNQFFLKLNSVTAEDTATYFCARGNYYANYPHAMDYWGQGTTVTVSS
VL: EIVLTQSPLSLPVSLGDQASISCRSRQTLVHTNGNTYLDWYLQKPGQSPKLLIYKVSIRFSGVPDRFSGSRSGTDFTLKISRVEAEDLGIYYCFQGSHVPWTFGGGTKLEIK
modifications: 3F1A11-H-12 heavy chain variable region; 3F1A11/3F1A11-H-12 light chain variable region
As for B3, the “Internalization PC3 (%) 2 h” value in the experiment with PC3 cells is 33.83%. The “Internalization MDA-MB-231 (%) 2 h” value in the experiment on MDA-MB-231 cells is reported as 37.57%.

B4: 1CP-063: anti-CDCP1 murine monoclonal antibody (hybridoma); VH SEQ ID NO: 263, VL SEQ ID NO: 313 (antibody, V domains shown)
VH: EVNLKESGPELVKPGASVRISCKASGYTFTSYYIHWVKQRPGQGLEWIGWIYPGNVNSKYNEKFKGKVTLTADKSSITAYMQLSSLTSEDSAVYFCAREDYGHYYAMDYWGQGTTVTVSS
VL: DIVMTQSPSSMYASLGERVTITCKASQDIKSYLSWYQQKPWKSPKTLIYYATSLADGVPSRFSGSGSGQDYSLTISSLESDDTATYYCLQYGESPWTFGGGTKLEIK
modifications: 1CP-063 heavy chain variable region; 1CP-063 light chain variable region
Consider B4, for which the “Internalization PC3 (%) 2 h” value in the experiment with PC3 cells came to 62.68%. For the same molecule, in the experiment on MDA-MB-231 cells, the “Internalization MDA-MB-231 (%) 2 h” value amounted to 49.71%.

B5: 1CP-116: humanized anti-CDCP1 antibody produced by 8E5; VH SEQ ID NO: 347, VL SEQ ID NO: 358 (antibody, V domains shown)
VH: QVQLVQSGSELKKPGASVKVSCKASGYTLTDFSMHWVRQAPGQGLEWMGWINTETGAPTYADDFKGRFVFSLDTSVSTAYLQISSLKAEDTAVYYCSRGRDYDPHFDYWGQGTLVTVSS
VL: EIVLTQSPATLSLSPGERATLSCRASQSISDFLHWYQQKPGQSPRLLIKYASQSISGIPARFSGSGSGSDFTLTISSVEPEDFAVYYCQSAHSFPYTFGQGTKLEIK
modifications: humanized antibody 8E5 heavy chain variable region 01; humanized antibody 8E5 light chain variable region 02
As for B5, in the experiment with HuCDCP1-C, the “ka” value was found to be 128000 M⁻¹ s⁻¹ and the “kd” value worked out at 4.59e-05 s⁻¹.

B6: 5G9: anti-CDCP1 murine monoclonal antibody (hybridoma); VH SEQ ID NO: 241, VL SEQ ID NO: 292 (antibody, V domains shown)
VH: EVQLQQSGTVLARPGASVKMSCKASGYIFLNYWMHWVKQRPGQGLEWIGGIYPGNTDTTYNQKFKGKAKVTAVTSATTAYMELSSLTNEDSAVYYCIRYDYDRGMDYWGQGTTVTVSS
VL: DIVMTQAPAIMSASPGEKVTISCSASSSVSYIYWYQQKPGSSPKPWIYRTSNLASGVPARFSGSGSGTSYSLTISSMEAEDAATYYCQQYHSYPYTFGGGTKLEIK
modifications: 5G9 heavy chain variable region; 5G9 light chain variable region
On to B6, for which, in the experiment on PC3 cells, the “Internalization PC3 (%) 0.5 h” value is on record as 0.00%, the “Internalization PC3 (%) 1 h” value amounted to 0.00% and the “Internalization PC3 (%) 2 h” value is listed as 0.00%. In addition, in the experiment with MDA-MB-231 cells, the “Internalization MDA-MB-231 (%) 0.5 h” value is listed as 0.00%, the “Internalization MDA-MB-231 (%) 1 h” value came to 0.00% and the “Internalization MDA-MB-231 (%) 2 h” value was found to be 0.00%.

B7: 1CP-061: anti-CDCP1 murine monoclonal antibody (hybridoma); VH SEQ ID NO: 262, VL SEQ ID NO: 312 (antibody, V domains shown)
VH: EVQLKESGAELVRPGASVKLSCKASGYTFTSYWINWVRQRPGQGLEWIGNIYPSDSYTNYNQKFKDKATLTVDKSSSTAYMQLSSPTSEDSAVYYCTRCLRRRDWYFDVWGQGTTVTVSS
VL: DVVMTQTPASLAVSLGQRATISCRASESVDYSGYSFMHWYQQKPGQPPKLLIYRASNLESGIPARFSGSGSRTDFTLTINPVEADDVATYYCQQSNEDPYTFGGGTKLEIK
modifications: 1CP-061 heavy chain variable region; 1CP-061 light chain variable region
B7: in the experiment on PC3 cells, the “Internalization PC3 (%) 2 h” value is listed as 28.00%. Further, in the experiment on MDA-MB-231 cells, the “Internalization MDA-MB-231 (%) 2 h” value came to 42.68%.

B8: 24G4: anti-CDCP1 murine monoclonal antibody (hybridoma); VH SEQ ID NO: 261, VL SEQ ID NO: 311 (antibody, V domains shown)
VH: EVQLKESGAELVRSGASVKLSCTASGFNIKDYYIHWVKQRPEQGLEWIGWIDPENGDTEYVPKFQGKATLTADTSSNTAYLQLNSLTSEDTAVYYCNPCGTGPWFAYWGQGTTVTVSS
VL: DIQMTQSPAILSASPGEKVTMTCRASSSVSYIHWYQQKPGSSPDPWIYATSFLASGVPGRFSGSGSGTSYSLTISRLEAEDAATYYCQQWNSSPFTFGGGTKLEIK
modifications: 24G4 heavy chain variable region; 24G4 light chain variable region
In the case of B8, in the experiment on PC3 cells, the “Internalization PC3 (%) 0.5 h” value came to 46.97%, the “Internalization PC3 (%) 1 h” value is 67.07% and the “Internalization PC3 (%) 2 h” value amounted to 82.61%. In the experiment with MDA-MB-231 cells, the “Internalization MDA-MB-231 (%) 0.5 h” value came to 55.98%, the “Internalization MDA-MB-231 (%) 1 h” value worked out at 70.68% and the “Internalization MDA-MB-231 (%) 2 h” value is recorded as 83.23%.
